# Tests used:
# [1] = target: NF-kB p65 (RelA) (UniProt Q04206); assay: competition; details: unit not given
# [2] = system: NF-kB; assay: cell_activity; details: NF-kB SEAP reporter, 0.1 uM
# Sequence of NF-kB p65 (RelA) (Q04206 whole entry): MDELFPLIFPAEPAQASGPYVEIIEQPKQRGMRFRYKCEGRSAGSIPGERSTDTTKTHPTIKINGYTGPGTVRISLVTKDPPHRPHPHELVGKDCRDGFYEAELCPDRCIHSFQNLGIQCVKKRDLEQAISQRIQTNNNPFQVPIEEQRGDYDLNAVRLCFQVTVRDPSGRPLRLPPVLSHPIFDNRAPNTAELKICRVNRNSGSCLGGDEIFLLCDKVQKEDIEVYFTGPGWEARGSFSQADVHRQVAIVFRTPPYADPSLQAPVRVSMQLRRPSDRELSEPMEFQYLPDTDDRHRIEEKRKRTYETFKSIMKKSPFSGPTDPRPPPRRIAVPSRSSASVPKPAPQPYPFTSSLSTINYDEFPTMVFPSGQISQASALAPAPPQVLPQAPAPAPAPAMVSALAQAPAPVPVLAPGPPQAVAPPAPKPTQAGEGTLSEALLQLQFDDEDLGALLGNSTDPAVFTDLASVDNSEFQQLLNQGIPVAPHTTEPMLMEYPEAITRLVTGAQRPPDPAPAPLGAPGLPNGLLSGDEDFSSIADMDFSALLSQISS
sequence,measurement,setting,value
ACCAGGGGATTTCCCCGTCCCAC (double strand) [SEQ-G],IC50,[1],1.71
AGCTGGGGATTTCCCCTTTG (double strand) [SEQ-F],IC50,[1],3.4
AGTATCGGGGATTTCCCCTTAAC (double strand) [SEQ-E],IC50,[1],1.91
AGTTGAGGGGATTTCCCCAGGC (double strand) [SEQ-A],IC50,"[1]; ELISA competition with immobilized NF-kB site, room temperature",1.51
AGTTGAGGGGATTTCCCCGC (double strand) [SEQ-H],IC50,[1],1.08
CCTTGAAGGGATTTCCCTCC (double strand) [SEQ-1],IC50,[1]; PS (*): C*C*TTGAAGG*G*A*TTTCCCT*C*C / G*G*AGGGAAA*T*C*CCTTCAA*G*G,0.84
CCTTGAAGGGATTTCCCTCC (double strand) [SEQ-x (full PS)],IC50,"[1]; PS at all positions, both strands, 2.60 in Table 3",3.97
CCTTGAGGGGATTTCCCCCC (double strand) [SEQ-9],activity,[2]; PS (*): C*C*TTG*A*GGGGATTT*C*CCCCC / antisense 5'-G*G*GGGGAAA*T*C*CCCTCAAGG,70 % inhibition
CCTTGAGGGGATTTCCCCCC (double strand) [SEQ-I-PS],IC50,[1]; PS at 2 bonds at each end of both strands,1.06
CCTTGAGGGGATTTCCCCCC (double strand) [SEQ-I],IC50,[1],0.384
GAGGGGATTTCCCC (double strand) [SEQ-33],activity,[2]; PS (*): G*A*GGGGATTT*C*CCC / antisense 5'-GGGGAAA*T*C*CCCTC,70 % inhibition
GAGGGGATTTCCCC (double strand) [SEQ-34],activity,[2]; PS (*): G*A*GGGGATTT*C*CCC / antisense 5'-G*GGGAAA*T*C*CCCTC,99 % inhibition
GAGGGGATTTCCCC (double strand) [SEQ-35],activity,[2]; PS (*): G*A*GGGGATTT*C*CCC / antisense 3'-CTCCC*C*T*AAAG*G*GGG (so in the source),70 % inhibition
TTGAGGGGATTTCCCC (double strand) [SEQ-36],activity,[2]; PS (*): T*TG*A*GGGGATTT*C*CCC / antisense 5'-G*GGGAAA*T*C*CCCTCAA,80 % inhibition
TTGAGGGGATTTCCCC (double strand) [SEQ-37],activity,[2]; PS (*): T*T*G*A*GGGGATTT*C*CCC / antisense 5'-G*G*GGAAA*T*C*CCCTCAA,75 % inhibition
TTGAGGGGATTTCCCC (double strand) [SEQ-38],activity,[2]; PS (*): TTG*A*GGGGATTT*C*CCC / antisense 5'-GGGGAAA*T*C*CCCTCAA,90 % inhibition
